This experiment concerns the target EGFP (UniProt P42212 1-238 = GFP). The experiment is described as follows: Biacore (SPR).

B1: GBP6 nanobody alone (VHH)
VHH: QVQLQESGGGSVQTGGSLRLSCAVSPYIGSRISLGWFRQAPGKVREGVALINSRDGSTYYADTVKGRFTISQGDANTVYLQMNSLKPEDTAIYYCAARWGQITDIQALAVASFPDWGQGTQVTVSS
notes: also called GPB6
As to B1, binding was characterised by a dissociation constant (Kd) of 2.26 nM.

The record behind these values is patent publication US20190202908A1 (Harvard, published 2019).
